{"source": "paper PMC3217859", "about": "“Protein phosphatase 2a (PP2A) binds within the oligomerization domain of striatin and regulates the phosphorylation and activation of the mammalian Ste20-Like kinase Mst3” (BMC Biochemistry, 2011)", "binders": {"B1": {"name": "Mob3/phocein (natural protein, human (endogenous in HEK293), UniProt Q9Y3A3 1-225, looked up)", "chain": "MVMAEGTAVLRRNRPGTKAQDFYNWPDESFDEMDSTLAVQQYIQQNIRADCSNIDKILEPPEGQDEGVWKYEHLRQFCLELNGLAVKLQSECHPDTCTQMTATEQWIFLCAAHKTPKECPAIDYTRHTLDGAACLLNSNKYFPSRVSIKESSVAKLGSVCRRIYRIFSHAYFHHRQIFDEYENETFLCHRFTKFVMKYNLMSKDNLIVPILEEEVQNSVSGESEA", "notes": "source: endogenous, HEK293 lysate"}}, "assay_in_all_cases": "co-IP; anti-HA immunoprecipitates (12CA5 with protein A-Sepharose, or F7 anti-HA-agarose when probing for Mst3 or Mst4; 1.5 h, 4°C) of lysates (1% Nonidet P-40, 0.135 M NaCl, 10% glycerol, 20 mM Tris pH 8.0) of HEK293 cells transfected with HA-striatins; endogenous partners by immunoblot, partner/HA-striatin ratio by chemilumimager against wild type; 50 mM NaF and 100 nM okadaic acid in the lysis buffer in the …", "details_in_all_cases": "partners not purified", "key": {"[1]": {"biological_target": "T1, HA-tagged Δ(70-116) striatin (human, UniProt O43815 1-780, Δ(70-116))", "T1 construct": "also called coiled-coil deletion mutant; source: HEK293, transfected, in lysate; not shown: HA, N-terminal, kept", "T1 sequence (looked up)": "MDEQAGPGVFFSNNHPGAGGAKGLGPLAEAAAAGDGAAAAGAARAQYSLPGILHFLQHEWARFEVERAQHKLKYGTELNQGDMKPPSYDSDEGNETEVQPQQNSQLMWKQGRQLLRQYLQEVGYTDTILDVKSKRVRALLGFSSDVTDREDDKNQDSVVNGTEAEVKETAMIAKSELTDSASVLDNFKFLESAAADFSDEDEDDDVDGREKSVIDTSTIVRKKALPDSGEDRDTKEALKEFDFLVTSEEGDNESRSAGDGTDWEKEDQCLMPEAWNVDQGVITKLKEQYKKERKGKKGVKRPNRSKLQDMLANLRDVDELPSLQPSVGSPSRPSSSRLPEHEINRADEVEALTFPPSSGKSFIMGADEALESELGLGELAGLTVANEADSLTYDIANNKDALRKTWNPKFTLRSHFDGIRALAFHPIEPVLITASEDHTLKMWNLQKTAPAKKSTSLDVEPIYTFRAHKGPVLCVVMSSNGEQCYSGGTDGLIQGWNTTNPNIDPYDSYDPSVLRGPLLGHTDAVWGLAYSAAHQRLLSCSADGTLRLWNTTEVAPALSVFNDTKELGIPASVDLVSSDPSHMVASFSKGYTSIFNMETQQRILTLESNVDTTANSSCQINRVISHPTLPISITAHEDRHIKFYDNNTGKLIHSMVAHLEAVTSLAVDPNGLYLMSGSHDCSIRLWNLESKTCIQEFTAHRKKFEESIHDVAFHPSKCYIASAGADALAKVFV"}, "[2]": {"biological_target": "T2, HA-tagged K270Stop striatin (human, UniProt O43815 1-269)", "T2 construct": "striatin, human, C-terminal truncation by a stop codon at K270; source: HEK293, transfected, in lysate; not shown: HA, N-terminal, kept", "T2 sequence (looked up)": "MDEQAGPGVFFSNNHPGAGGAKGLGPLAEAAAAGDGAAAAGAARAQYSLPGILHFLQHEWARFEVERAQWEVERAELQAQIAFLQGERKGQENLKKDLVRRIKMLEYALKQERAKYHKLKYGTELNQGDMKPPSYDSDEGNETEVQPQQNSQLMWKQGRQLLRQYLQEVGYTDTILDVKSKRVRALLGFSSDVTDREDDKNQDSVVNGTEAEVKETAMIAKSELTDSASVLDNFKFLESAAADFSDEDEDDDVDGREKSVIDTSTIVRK"}, "[3]": {"biological_target": "T3, HA-tagged Δ(227-309) striatin (human, UniProt O43815 1-780, Δ(227-309))", "T3 construct": "source: HEK293, transfected, in lysate; not shown: HA, N-terminal, kept", "T3 sequence (looked up)": "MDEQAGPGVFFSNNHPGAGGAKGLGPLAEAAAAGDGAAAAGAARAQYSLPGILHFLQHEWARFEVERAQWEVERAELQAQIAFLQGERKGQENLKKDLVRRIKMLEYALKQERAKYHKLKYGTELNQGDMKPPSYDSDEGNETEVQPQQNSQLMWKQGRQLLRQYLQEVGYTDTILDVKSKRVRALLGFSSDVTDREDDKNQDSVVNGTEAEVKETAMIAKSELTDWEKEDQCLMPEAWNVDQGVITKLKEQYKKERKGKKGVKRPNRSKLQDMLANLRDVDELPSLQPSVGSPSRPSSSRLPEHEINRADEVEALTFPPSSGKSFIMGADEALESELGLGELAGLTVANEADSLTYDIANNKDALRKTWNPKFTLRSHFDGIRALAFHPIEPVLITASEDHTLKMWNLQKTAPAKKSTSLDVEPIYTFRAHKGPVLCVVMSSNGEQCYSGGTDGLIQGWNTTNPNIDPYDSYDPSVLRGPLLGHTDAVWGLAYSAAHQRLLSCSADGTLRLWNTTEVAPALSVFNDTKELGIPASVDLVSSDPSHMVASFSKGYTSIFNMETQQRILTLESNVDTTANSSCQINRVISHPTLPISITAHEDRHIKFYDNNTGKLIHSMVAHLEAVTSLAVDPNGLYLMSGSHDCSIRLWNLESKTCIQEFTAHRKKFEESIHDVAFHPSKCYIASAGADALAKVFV"}}}
{"binder": "B1", "values": [{"measurement": "percent of the wild-type level bound", "setting": "[1]", "value": "40 % of wild-type levels"}, {"measurement": "percent reduction in binding against wild-type striatin", "setting": "[2]", "value": 45, "unit": "%"}, {"measurement": "percent of the wild-type level bound", "setting": "[3]", "value": "75 % of wild-type levels"}]}
